From the RNAGym collection of RNA variant scans (doi:10.7554/elife.80360) come the findings set out here.

First the molecules themselves.
B1: HDV Ribozyme (parent)
chain: GGCCGGCAUGGUCCCAGCCUCCUCGCUGGCGCCGGCUGGGCAACAUUCCGAGGGGACCGUCCCCUCGGUAAUGGCGAAUGGGACCCA

The data set covers variants of B1. Nature of the data set: self-cleavage, relative activity (ratio to wild type); higher = more cleavage; co-transcriptional.
In the case of U9C G40U, the self-cleavage turned out to be 0.449. With G11A C32A the figure was 0.0231; with U9C G28A, 0.101; with G11A G53A, 0.437.

Regarding G10U U79G, the self-cleavage is 0.38. Then U9C U46C, with 0.831. With G11C A45U the figure was 0.0554.

Regarding G10U G74U, the self-cleavage came out at 0.0594. For G10A G40U, the self-cleavage came to 0.566. Then G10A G40A, with 0.905; and U9C A83C, with 0.475; and U9C G39U, with 0.665. Then U9C G10C, with 0.767; and G10C C75A, with 0.415.

As for G10A A87G, the self-cleavage was 0.857. Then G11A C75U, with 0.144. For U9G C15G, the self-cleavage is 0.739. Then G11A C22U, with 0.041. G11A C22A: the self-cleavage came to 0.0443.

Regarding U9C C62A, the self-cleavage was 1.14. As for U9C C62U, the self-cleavage was 0.869. Then G10C C14G, with 0.312; and G10A G73U, with 0.159.

With G10C C33A, the self-cleavage stood at 0.213. With U9G G52A the figure was 0.712. Then U9G G52C, with 0.95; and G10A G34C, with 0.227.

Turning to G10C G39U, the self-cleavage is 0.808.

Regarding G10C G39A, the self-cleavage came to 0.259.

As for U9G G67C, the self-cleavage was 1.08. Consider G10A G52A, for which the self-cleavage is 0.749. As to G10C G17U, the self-cleavage came to 0.494. Then U9C C36U, with 0.682; and U9C C36A, with 0.178; and G10U G68A, with 0.584. In the case of G10U G68C, the self-cleavage was determined as 0.564. Then G10U G68U, with 0.727.

U9G G25U: the self-cleavage stood at 0.383. Then U9G G25A, with 0.0755; and U9G C66A, with 0.594; and G10A C85A, with 1.09.

For G10A C85U, the self-cleavage amounted to 0.946.

Turning to G10A G17A, the self-cleavage came to 0.724. With U9G C85A the figure was 1.02; with G10U C49G, 0.391. With G10C C30U the figure was 0.208; with G10A U60C, 0.787. With G11A U23G the figure was 0.13; with G10A C13U, 0.179; with G10C A16U, 1.49. Turning to U9C U27G, the self-cleavage was 0.914.

In the case of G10A C58A, the self-cleavage came out at 0.816.

On to G10A C58U, for which the self-cleavage is 0.972.

Regarding U9G G68A, the self-cleavage amounted to 0.831. With U9G G68C the figure was 1.02. For G11A G35A, the self-cleavage is 0.272.

With G11A G35C, the self-cleavage was determined as 0.0536. Then G10U A45G, with 1.07. With G10U A45C the figure was 0.175; with U9G G31U, 0.554; with U9G G31A, 0.675. Then U9G U37C, with 1.37; and G11A U65C, with 0.277; and G11A U65G, with 0.305. As for G10A C44G, the self-cleavage was 0.415. As for G10A C44U, the self-cleavage worked out at 0.463. With G11A C26A the figure was 0.878; with G11A C26G, 0.99.

With U9G C30A, the self-cleavage came out at 0.653. For the variant G11C A56G, the self-cleavage is 0.172.

For the variant G10C C24A, the self-cleavage is 0.692. With G10C C24U the figure was 0.646. For G10A A43U, the self-cleavage came out at 0.355.

Turning to G10A A43G, the self-cleavage turned out to be 0.217. With U9C G34C the figure was 0.361; with U9C G34A, 0.208; with G10C U20A, 0.0519. Then U9C G74U, with 0.467; and G10C G29U, with 0.0707; and G10C G29C, with 0.155. With G10C C18U the figure was 0.396; with G10C C18A, 0.0906. Regarding G10C C62U, the self-cleavage was found to be 0.989.

In the case of G10C C62A, the self-cleavage stood at 0.919. In the case of G11A G59A, the self-cleavage came to 0.38. Consider G10C U47G, for which the self-cleavage worked out at 1.35. With G10C U47A the figure was 0.853; with G10U G40U, 0.842.

G10U G40C: the self-cleavage was 0.313. Then U9G C36G, with 0.115.

G10C G31A: the self-cleavage is 0.393. With G10C G31C the figure was 0.237. Then G10U G34C, with 0.189. With G10U G34U the figure was 0.323; with G10C C63A, 0.88; with G10C C63G, 0.852.

Consider G11A G29U, for which the self-cleavage was 0.12.

For the variant G10U C32A, the self-cleavage turned out to be 0.1. With G10U C32G the figure was 0.0554; with G10A C57U, 0.797. On to G10A C14A, for which the self-cleavage came to 0.205.

On to G10A C14G, for which the self-cleavage is 0.166.

U9C C24A: the self-cleavage was determined as 0.864.

Turning to U9C C24G, the self-cleavage worked out at 0.0536. With U9C C24U the figure was 1.05; with G10A G67A, 0.66. Then G11A G67C, with 0.456; and U9G U47A, with 1.16; and G10C G28C, with 0.107. With G10C G28U the figure was 0.148. Turning to G10A C64G, the self-cleavage amounted to 0.749. Then G10A C64A, with 0.646; and U9G G34U, with 0.237. With G10U G80U the figure was 0.0944; with G10C G35U, 0.374; with U9G A43G, 0.475. U9G A43C: the self-cleavage came to 0.415. Then G11A C15U, with 0.479; and G10C C84A, with 0.705; and G10C C84G, with 0.578. Then G10A G29U, with 0.0275. With G10A G29A the figure was 0.0798; with G10A G29C, 0.0767.

Take G10C C58U: the self-cleavage is 1.23. Then U9G A77U, with 0.604; and G10A C63U, with 0.655. Then U9C C15G, with 0.104; and G10C G54A, with 0.831; and U9G A71U, with 1.13.

In the case of U9G A71C, the self-cleavage is 0.787. Then U9G A71G, with 0.831; and G11A C44A, with 0.187. Consider U9G A70G, for which the self-cleavage is 0.831. Then G10U C13U, with 0.122. With U9G A56G the figure was 0.895; with G10U U65A, 0.665; with U9G G17A, 0.225. With U9G C61A the figure was 1.33; with U9C C63A, 1.14. Take G11A U69A: the self-cleavage was 0.166.

With G11A A45G, the self-cleavage came to 0.403.

As for G11A A45C, the self-cleavage was found to be 0.155. Then G11A A45U, with 0.222. With G10C A70G the figure was 0.516. Then U9G G29U, with 0; and G10A G50A, with 0.657. For G10U A70U, the self-cleavage turned out to be 0.602.

In the case of G10U A70C, the self-cleavage came out at 0.678. Then G11A C14G, with 0.0346. Then G10A A71U, with 0.712.

Take G10C G53C: the self-cleavage came out at 1.02.

G10C G68U: the self-cleavage is 0.778. U9C G73A: the self-cleavage came to 0.675. Then U9C G73C, with 0.291; and U9G C14A, with 0.831.

As to G10U G73A, the self-cleavage stood at 0.235. On to G11C A51U, for which the self-cleavage came out at 0.426.

Regarding G10U G53A, the self-cleavage is 0.769. With G10U A87C the figure was 0.801. Then G10A U47G, with 0.853; and G10C U37A, with 0.177; and G10C U37C, with 1.05. With U9G C62A the figure was 1.14; with G10C C15U, 0.582; with G10C C15A, 0.237. Take G11A A87U: the self-cleavage came out at 0.495. Then G10U U72C, with 0.193.
